Data from a protein production outcome set (Wang et al. 2014).

Assay: label from the status in PepcDB records
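Also: failed if final PepcDB status was selected cloned or expressed and not failed if soluble or beyond.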

Row | Sequence | protein production
1 | MGKIHELSSVLADQIAAGEVVERPASVVKELVENAVDAHATQVDILVQESGVQSIRVIDDGDGIDDAEVLTAFKRHATSKITSREDLFRVHSLGFRGEALPSIASVADVVMNTSTGATGTSIHYRGGKLLQQSPAPLRQGTDITVTDLFFNTPARLKYLKSPQTELANILDVVNRIALSYPAVAFRLVHNAKELLKTAGRGDLQQVIAGIYGVQNARKMVAIQGSTTDFKLSGFVALPELTRASRQYITVLINGRAIKNQQLTKAVIKGYGSKLMVGRYPIAVIALTMDPLLVDVNVHPTKQEVRLSKEPELAKLVSTTITDRLVDVNLIPSALTNLGSHRREHLNTDQLAMDLNAVSSQYQVADKTTPASTEQFAASLAAATMQPSSATTMVSTTSAQPSAVNRAAVSAVVPSESAASSANQPIMISHRDELTATPVQAFDQRYQSESGALPFGETAEPLETSTAASAPTSEAPDTERFPQLRYLGQMHGTYLLAEADDGMYILDQHAAQERINYEYYRQAIGEVSADQQNLLVPIILDYPTSDVLKIKEKLPLLAELGIHLESFGGNSFIVHAHPTWFKAGQEEDTIREMIDWLLQDDKLTVAQFREKSAIMMSCKRAIKANHHLDDQQARALLAKLPTCENPFNCPHGRPVTVHFTNSDMERMFKRIQDSHEARD | failed
2 | GMINAHNHLPMIAFRGLGEEGISNRLFAYFFPLEAQKLSRELIYNATKLGAIDLAQSGVTTYADMYYHMDEMAKATKEVGLRAVLGETVIKFPVVDAKQPYGGIQYAKPFIEEYQNDPLITPAYAPHAVYTVSKEKLQEINQLSEDYDVPVLIHVAEFPNEEARIKDPTKATSPVEYLEEIGVLDERMVIAHGIHLSQHDQALLKQADAGVVYNPMANVKGATGIAPAWDMFRADMRVGLGTDGPMSSNQVDLWRTLSYAANMQRLKHSDRTIMIPEQVIEMATIGGAKALHMEDE | failed
3 | MKFLVENLNGSSFELEVDYRDTLLVVKQKIERSQHIPVSKQTLIVDGIVILREDLTVEQCQIVPTSDIQLEVSSDDDNPNHNDCDQKPQTEQSPALPLVSAEEYFERQDWPLTAEELRQIYSYRPEHEG | failed
4 | MQTQVLFEHPLNEKMRTWLRIEFLIQQLTVNLPIVDHAGALHFFRNVSELLDVFERGEVRTELLKELDRQQRKLQTWIGVPGVDQSRIEALIQQLKAAGSVLISAPRIGQFLREDRLIALVRQRLSIPGGCCSFDLPTLHIWLHLPQAQRDCQVETWIASLNPLTQALTMVLDLIRQSAPFRKQTSLNGFYQDNGGDADLLRLNLSLDSQLYPQISGHKSRFAIRFMPLDTENGQVPERLDFELACC | not failed
5 | MKKGSLAIVLGSLLASGAFYTALADGMPAKQQHNNTGESVELHFHYPIKGKQEPKNSHLVVLIEPKIEINKVIPESYQKEFEKSLFLQLSSFLERKGYSVSQFKDASEIPQDIKEKALLVLRMDGNVAILEDIVEESDALSEEKVIDMSSGYLNLNFVEPKSEDIIHSFGIDVSKIKAVIERVELRRTNSGGFVPKTFVHRIKETDHDQAIRKIMNQAYHKVMVHITKELSKKHMEHYEKVSSEMKKRK | failed
6 | MIVTLLAVGAAAAVGAVARYMLDQYVQYRSPGLFPLGTWLINVTGSFVLGLLVGLGARHGLPEQFVPIAGVGFCGAYTTFSTFSYELVHLREKGQVRKSLLYGASSLTAGLLAAAAGLAVESF | failed
7 | MAEAKSRVGRPSGDTQNRDKLILAARNLFIERPYAQVSIREIASLAGTDPGLIRYYFGSKEKLFSTMIHETAMPVLAQLHKARRETRQESPAALLQTYYSVMSKHPHFPRLMLRIAGLDQSLPENAEVTKAFYEVVNFENIAIFQRLKDKNLLKDDVDAHCAQLSFFAMMVFPFIVPENLLERVGIELTPDFLQLLAEQNTRLLQRGLMDVKDERDE | not failed
8 | MDDDMDIQQSYPFTVEVMPVPNKVVKGQTVEIRCELKKEGDFSGTLYTIRYFQFEGEGSLKMDNGITFLPNDRYLLENEKFRLYYTAAGDEAHNFIVVVEDNFSNSYELEFDFNNRNVKDDDLTIVPIGNFSPLLKLEHHHHHH | failed
9 | MYQKFKGGDLMIHGGDIYTEGVFKGRELLDYSSNINPLGIPKSFLNNIDEGIKNLGVYPDVNYRRLNKSIENYLKLKDIGIVLGNGASEIIELSISLFEKILIIVPSYAEYEINAKKHGVSVVFSYLDENMCIDYEDIISKIDDVDSVIIGNPNNPNGGLINKEKFIHVLKLAEEKKKTIIIDEAFIEFTGDPSSSFVGEIKNYSCLFIIRAMTKFFAMPGIRFGYGITNNKEIAAKIKAKQNPWNINCFAEMAAINCLKDTNYIEESLLWIKKERKRFIEELNKIGFIKRVFSPHANFVLCRLENISGEKLYDSLLKEDIVIRRCCNFIGLDDSFVRFAIKDEKKNTKFLRALKGVENNL | not failed
10 | MKPSGEDQAALAAGPWEECFQAAVQLALRAGQIIRKALTEEKRVSTKTSAADLVTETDHLVEDLIISELRERFPSHRFIAEEAAASGAKCVLTHSPTWIIDPIDGTCNFVHRFPTVAVSIGFAVRQELEFGVIYHCTEERLYTGRRGRGAFCNGQRLRVSGETDLSKALVLTEIGPKRDPATLKLFLSNMERLLHAKAHGVRVIGSSTLALCHLASGAADAYYQFGLHCWDLAAATVIIREAGGIVIDTSGGPLDLMACRVVAASTREMAMLIAQALQTINYGRDDEK | not failed
11 | MKLFSSGRKTPTSSPASSHAGAMDETVGVTSTSEAANVATQPVPTPVEDVPNGVRTAAGWCWRMIVIAAFIYGLYQVLHAASEVSVPVAVALMLTAAMWPLANWLSRHHIHRGIASGICLLLLVILVGGVFTLVGAQIALQWRQLGDQSVASFKQALQWLAKSPLHTNEAQLTHLMQKAEAAMAGSQGRIASTAAAAGSQIGRFGAGLVMALFATFFFVYEGDKLAEKSAVLIPREHRAAILDAAKRGWVALVAYVRAAVIVAFVDGLGAGIGAAIIGSSMSVAIGALTFILAFVPIVGALTAGVVAVGVVLVTLGFFKAFIMLIVFVAVMQIEGHVLQPFLLGKAVSIHPLIVLLGIAVGAIISGIVGALFAIPIVAFGVAFIKALNPETPANEVPPNHDDLAAEHT | failed
12 | GHMARTVNLKGNPVTLVGPELKVGDRAPEAVVVTKDLQEKIVGGAKDVVQVIITVPSLDTPVCETETKKFNEIMAGMEGVDVTVVSMDLPFAQKRFCESFNIQNVTVASDFRYRDMEKYGVLIGEGALKGILARAVFIIDKEGKVAYVQLVPEITEEPNYDEVVNKVKELI | not failed
13 | MSAPAPRSPAGGHEARATARALTLLAIGAGFGFLWLARDLLVPTALGVTLALSVHPVVAALQRRRVSRTVASVAGTLLAVAVLVGIGYVLWGRIAAFADELPGYEGRLREAAAGIRRHAAHLQAQSEQLVQAPRRPGEVKVQEGVPWGSLLVGTAQGALTFAGQATVVVFVLYFTLAEGPRFRTKLLAWADRRPRGRARVLAALEELHRDVEQYMLNRVALNAALGVVTWAVYALYGLEHAAIWGITTALLHFIPYVGPALGLFLPAAMALLQYGTAKDVALVTAIYLVLVNVQGNVVDPLFLGKQLRLSPLVVFLGSLFWFWLWGPVGLFLAVPLLSTVRIVCRHLPRYRVVASLLAE | failed
14 | MTFLPTSLKFFSSLSRASGAVWTEATKRKAPHKPLLLLAVLDLVHRGVITTPFIAVSGDLVELNELFNLYWRRIIPLGQTSSIAFPFSRLAREPFWELVPQPGKNITDAVINNTSSVSYLRKYALGAKLDDGLFRVMASGEGREALREALLLSCFSPEASAQLREQSIINREAFDYSRLLEEQAHLPLVKEIVEADNYRPTVRDQAFRKVVTSAYDHRCALCGIRIVTPDGHTVVEAAHIVPWSRSQNDDIRNGMALCRTCHWGFDEGMLGVSDNYTVITSRSIGIDPNFPGLLQTLSGRGIIPPADPDKFPAREYLAEHRRAWRL | failed
15 | MRHFRVFLRKPKRITSAAQPLETGSSGLHFSAVNPRQAPASFFPSLRRFTVRLTAARQDQLVSYFFTCFKGVSMSQSVMKKSVLRILPGLLCLALPLSSCSSSKSPKATMTATPVELRYREATEKIAKRKYNDAIVILESLMFSTRATALEDDVLKALADSYYKKKEYILAADTYRRLLQQTPDSPYARDAQFMLAKSYEKLSPFHELDQEYTVKAINEFETYLDQYPSDDSAQAANDLELYKNLMKVNPDNASYREKYEAAKEELASGSPARYSQKAISELRERLAHNRFSIARQYFKLKKYRAAEIFYDVVINQYPDTKWLESAWIGKIDSEIKQNNWFEARQSIETFQQLYPDKAKLIEPAAKRVTAHYSNKRDPKSKE | failed
16 | MSEIDANYRALAQQVADKVAGRVIALDRLPESLLTAYRSLCDELLADRDGRFTRAWDQLPDSASSLFERCVFHGFYLANAWIQLSIVARDISELQDTDEAIAEQEYSGLYVRVAEAALKESVKKLKKARTDRSMYNSMREVMGI | not failed
17 | MSKHQRPRILITGAAGALAQQVIRRLRESCDLVAVDFREQVYLGDDIPSYCIDFNKRVFEDLFRRYEFDGVIHLGRILSSQLTRMRRYNANVLGTQKLLDLSHKYGIRRVIVLSTYHVYGAVAYNPALIDESAPLKSAGLSADLVDSVELENLANIYLWRYPELNITILRPCNIVGPGVRNTMSTLLSSERAPVLAGFSPMMQFIHIDDMADAIVAAWAKPVKGVFNVAPQDWVAYQHALKLCGCKTIPIPSIPPSVPKAIARVLNLRSFPPYLMAFFKYPVVIDGRAFAREFGFEPKRPLKEIFRYYRDNKKPV | failed
18 | KLFPRLFGLYRHVADLYQKMKALHPIMNDTLNRQAERWGLGKIYLSEEEFCQSEEKEKIRMLQSDFYDRMWYRLDFRGKLGSAKSFQCYYFFFRHS | failed
19 | MLAAGEGKRMGACKPLLPLGASTVLAHVAKTLLPAINGPLVVVTGHHGDAVTAEALRLSLETAENTTPQDGMFSSVRTGIAHIVGRVDGVLVLPADIPFVRTATCALVVEAFRRHRAAVTYPTLCGERGHPPLLDADTMRAVLASSGDGGLRGVLLALERQGGTTHDVAVADEGIVTDMDTPADHAQLVARHPLRHIPTPREREALLEMAGTPARVRAHCRMVARAALAMAAHLEATRRGFISPFARQSAPHGISTSGAHAEPRSVPASTTTHAVHAEGNTTLPHTATAHVACPPPDVTTGPMPTCQPGHMPDHMPGTARDAAQQAPAATASPQRLDRPLIHAAATLHDICKGTQRHEAAGGALLTRHGFPEVGSIIAAHRDIAPQAGPEIDEAALVMLADKYVRGVSLIPVEERFDERLREWAHRPDVACDIAARKARVLMVRDLFESETATELFPLLQRKVRRGTFLEHHHHHH | failed
20 | MSQRVSPTLIGLFVVGALALGVVGVGAFGSGQFFEQRTTFISYFDESVNGLDVGAPVKFKGVPIGEVTDINLRVDLENETFQVPVQYAINLDPVTDTTGARLNLDDPTLLRDQIEDGLRAQLQLESIVTGKLYVELTYISDPDSAVYAQGPPSRLSIPTELSPLAKLGEGASGLVTNLRQFDVTQINENLVTFLVNANDKLEALDAEAINRSALSTIESVRKVVESKEVRTALQDMPKATERLRATIKDAQALIQRLDRGVEPTADELEKTSRQLRATLKRMRRTMDEVDQTLSPNSGIGYQMNEALSNLSEATEALRVLVQSLERNPSMFLRGREEPPPSNQQ | failed
21 | MSTPLTLIATITAAPGHAEALERELRALVAPSRAEAGCLQYDLHQDRHDSHLFYMIEQWRDDAALERHQNTEHFLRFSRGNEALLQNVKIDQLYRLA | not failed
22 | MATKGLKMVTLALLDDKGVIVKGETGLSTNGVFPITDEMLGTKTANITNLSSAPTMIYGNDGQVDADIAKGTPSVAFAFNGLPVDIKNKLLGRVNDTKGGYTQGSIPKVAVLIQTTTIGTAKPQYVAFAAGKMNETAMNLQTNTNAVVRVDDALTFTAFSVSRWGGEAVKFFDGGDSKFTEDVMMKDVFNGYAGVGV | failed
